In patent US20210015937A1 (CRESCENDO BIOLOGICS, published 2021):
Residue numbers refer to the chain shown, from its start. Numbers in names are those of the source. Each block holds one binder with its values, some of them ahead of it.

Tests used:
[1] = molecular target: T1, human PD-1 expressed on cells (human, UniProt Q15116 25-288); test: cell-based or functional assay
[2] = molecular target: T1, human PD-1 expressed on cells; test: cell-based or functional assay; remark: listed apart in the source
[3] = molecular target: T2, human LAG-3 expressed on cells (human, UniProt P18627 23-525); test: cell-based or functional assay
T2 sequence: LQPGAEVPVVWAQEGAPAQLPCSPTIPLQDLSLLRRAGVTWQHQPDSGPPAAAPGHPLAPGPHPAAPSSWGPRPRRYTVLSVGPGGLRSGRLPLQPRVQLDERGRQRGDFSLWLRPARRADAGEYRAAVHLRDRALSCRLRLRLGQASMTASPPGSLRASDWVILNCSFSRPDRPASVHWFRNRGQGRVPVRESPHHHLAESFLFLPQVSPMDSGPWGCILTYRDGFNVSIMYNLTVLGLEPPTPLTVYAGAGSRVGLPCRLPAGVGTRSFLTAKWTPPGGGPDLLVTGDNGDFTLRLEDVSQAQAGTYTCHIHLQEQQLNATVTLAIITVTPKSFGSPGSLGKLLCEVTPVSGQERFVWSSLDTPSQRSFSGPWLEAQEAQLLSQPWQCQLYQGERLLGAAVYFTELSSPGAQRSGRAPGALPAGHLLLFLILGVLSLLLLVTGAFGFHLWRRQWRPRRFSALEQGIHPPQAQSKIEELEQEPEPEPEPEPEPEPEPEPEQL

[4] = molecular target: T3, recombinant human LAG-3-Fc (human, UniProt P18627 23-450); test: BLI (Octet); human LAG-3-Fc amine-coupled to biosensor, VH in solution, 1:1 fit
T3 construct: also called human LAG-3 (R&D Systems cat no. 2319-L3); LAG3 antigen
T3 sequence: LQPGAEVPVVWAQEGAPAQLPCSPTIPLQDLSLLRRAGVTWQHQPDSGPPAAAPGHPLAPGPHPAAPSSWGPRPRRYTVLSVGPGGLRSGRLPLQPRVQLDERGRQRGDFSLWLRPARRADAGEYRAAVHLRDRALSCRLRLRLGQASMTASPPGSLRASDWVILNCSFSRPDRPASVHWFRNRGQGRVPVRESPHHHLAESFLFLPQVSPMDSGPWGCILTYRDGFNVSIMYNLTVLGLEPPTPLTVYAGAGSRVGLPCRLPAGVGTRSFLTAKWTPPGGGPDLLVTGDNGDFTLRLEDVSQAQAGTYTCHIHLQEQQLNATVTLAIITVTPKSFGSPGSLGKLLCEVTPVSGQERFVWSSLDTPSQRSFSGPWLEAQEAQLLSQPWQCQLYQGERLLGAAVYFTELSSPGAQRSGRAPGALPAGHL
Protocol: Binding kinetics were measured in real-time bio-layer interferometer based biosensor Octet (ForteBio). […] All the binding studies were performed in HBS-ET Octet kinetics buffer. Biosensors were washed in Octet kinetics buffer in between different steps. A seven point, two-fold dilution series of each Humabody® VH was made with a top concentration of 1.6 μM. The contact time for each of the association steps was 150 seconds and the dissociation step was 300-400 seconds. Kinetic association (kₐ) and dissociation (kd) rate constants were determined by processing and fitting the data to a 1:1 binding model using ForteBio Analysis software.

[5] = molecular target: T3, recombinant human LAG-3-Fc; test: BLI (Octet); human LAG-3-Fc captured on protein G biosensors, 1:1 fit
Protocol: (§1) Binding kinetics for multi-valent and bispecific VH were also measured in real-time bio-layer interferometer based biosensor Octet (ForteBio). […] All the binding studies were performed in HBS-ET Octet kinetics buffer. Biosensors were washed in Octet kinetics buffer in between different steps. […] The contact time for each of the association steps was 150 seconds and the dissociation step was 400 seconds. […] To compare the constructs, kinetic association (kₐ) and dissociation (kd) rate constants were determined by processing and fitting the data to a 1:1 binding model using ForteBio Analysis software.

[6] = molecular target: T4, Rhesus monkey LAG-3 (used as cynomolgus LAG-3) (Rhesus monkey (called cynomolgus in the …)); test: BLI (Octet); cynomolgus LAG-3 immobilised on ARG2 sensors, 1:1 fit
T4 construct: extracellular domain
Protocol: as §1

[7] = molecular target: T1, human PD-1 expressed on cells; test: FMAT inhibition of human Fc tagged PD-L1 binding to CHO human PD-1 cells
Protocol: All reagents and serially diluted VH were prepared in FMAT assay buffer. […] Plates were incubated for 2 hours at room temperature then fluorescence measured in the FL2 (502 nm-537 nm) and FL5 (677-800 nm) channels on the Mirrorball plate reader (TTP) following excitation at 488 nm and 640 nm. Data was expressed as a % of the total binding control (i.e. % control) after subtraction of the background signal determined from the non-specific binding control wells.

T1 sequence (Q15116 25-288 limits assumed): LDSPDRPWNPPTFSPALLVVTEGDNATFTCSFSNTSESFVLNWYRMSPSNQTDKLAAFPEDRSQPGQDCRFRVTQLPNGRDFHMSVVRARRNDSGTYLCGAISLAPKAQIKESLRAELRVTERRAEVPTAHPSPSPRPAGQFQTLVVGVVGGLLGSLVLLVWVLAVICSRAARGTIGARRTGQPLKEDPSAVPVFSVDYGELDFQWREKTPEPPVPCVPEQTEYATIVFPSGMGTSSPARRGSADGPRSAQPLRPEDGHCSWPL

B5: variant 6 of VH 1.1 (VHH)
VHH: EVQLVESGGGVVRPGGSLRLSCAASGFTFDDFGMSWVRQAPGKGLEWVSGIHWNSDITAYADSVKGRFTISRDNAKNSLYLQMNSLRAEDTALYYCARIPREDCSSASCYTDAIDFWGPGTMVTVSS
notes: 4
- Kd [4]: 31.3 nM
- koff [4]: 0.00343 s⁻¹
- kon [4]: 110000 M⁻¹ s⁻¹

B8: variant 5 of VH 1.1 (VHH)
VHH: B5 VHH with D30N, S55G, D56G, I57N, A59G
notes: 4
- Kd [4]: 7.9 nM
- koff [4]: 0.000517 s⁻¹
- kon [4]: 65500 M⁻¹ s⁻¹

B10: variant 4 of VH 1.1 (VHH)
VHH: B5 VHH with F32Y, N54I, S55G, D56G, I57N, T58S, A59G
notes: 4
- Kd [4]: 8.41 nM
- koff [4]: 0.000479 s⁻¹
- kon [4]: 56900 M⁻¹ s⁻¹

B11: variant 9 of VH 1.1 (VHH)
VHH: B5 VHH with F32Y, S55G, I57S, A59G, Y95H
notes: 4
- Kd [4]: 53.2 nM
- koff [4]: 0.00383 s⁻¹
- kon [4]: 72100 M⁻¹ s⁻¹

B12: VH1.1-4GS-VH1.1-His6 (VHH)
chain: EVQLVESGGGVVRPGGSLRLSCSASGFTFDDYGMSWVRQAPGKGLEWVSGIHWNGGNSGYADSVKGRFTISRDNAKNSLYLQMNSLRAEDTALYYCARIPREDCSSASCYTDAIDFWGPGTMVTVSSGGGGSGGGGSGGGGSGGGGSEVQLVESGGGVVRPGGSLRLSCSASGFTFDDYGMSWVRQAPGKGLEWVSGIHWNGGNSGYADSVKGRFTISRDNAKNSLYLQMNSLRAEDTALYYCARIPREDCSSASCYTDAIDFWGPGTMVTVSSAAAHHHHHH
- EC50 (M), NFAT-Luciferase Reporter Gene assay (LAG-3:MHCII) [3]: 1.4e-09 M

B13: VH 1.2-6GS-VH 1.2 (VHH)
chain: EVQLVESGGGVVRPGGSLRLSCAASGFTFDDYGMSWVRQAPGKGLEWVSGIHWNGGSTGYADSVKGRFTISRDNAKNSLYLQMNSLRAEDTALYYCARIPREDCSSASCYTDAIDFWGQGTMVTVSSGGGGSGGGGSGGGGSGGGGSGGGGSGGGGSEVQLVESGGGVVRPGGSLRLSCAASGFTFDDYGMSWVRQAPGKGLEWVSGIHWNGGSTGYADSVKGRFTISRDNAKNSLYLQMNSLRAEDTALYYCARIPREDCSSASCYTDAIDFWGQGTMVTVSSAAAHHHHHH
notes: It is built here from its name, the (Gly4Ser)n linker definition and the statement that the constructs used carried C-terminal AAA-His6; also called 1.2-6GS-1.2; LAG3 bivalent
- Kd [5]: 0.744 nM
- koff [5]: 0.00112 s⁻¹
- kon [5]: 1.5e+06 M⁻¹ s⁻¹
- Kd [6]: 0.536 nM
- koff [6]: 0.000148 s⁻¹
- kon [6]: 276000 M⁻¹ s⁻¹

B14: VH 2.80 (VHH)
VHH: EVQLVESGGGLVKPGGSLRLSCAASGFTFSDSSMTWMRQAPGKGLEWVSYISSGGGVKFYADSVKGRFTISRDNAKNSLYLQMNSLRAEDTAVYYCAREAPLRLGESPHDAFDISGQGTMVTVSS
notes: Human VH single domain antibody against PD-1
- IC50 [7]: 1.82 nM

Continued, values first:

- EC50 (M), NFAT-Luciferase Reporter Gene assay (PD-1:PD-L1) [1]: 3.7e-08 M
- potency in the PD-1:PD-L1 NFAT-luciferase reporter assay, fold lower than monoclonal antibodies [2]: > 30 fold
- EC50 (M), NFAT-Luciferase Reporter Gene assay (LAG-3:MHCII) [3]: 6.6e-09 M
B1: 2.77-6GS-1.1-6GS-1.1 (bispecific antibody)
chain: EVQLVESGGGLVKPGGSLRLSCAASGFTFSDSSMTWMRQAPGKGLEWVSYISSGGGVKFYTDSVKGRFTISRDNAKNSLYLQMNSLRAEDTAVYYCAREAPLRLGESPHDAFDISGQGTMVTVSSGGGGSGGGGSGGGGSGGGGSGGGGSGGGGSEVQLVESGGGVVRPGGSLRLSCSASGFTFDDYGMSWVRQAPGKGLEWVSGIHWNGGNSGYADSVKGRFTISRDNAKNSLYLQMNSLRAEDTALYYCARIPREDCSSASCYTDAIDFWGPGTMVTVSSGGGGSGGGGSGGGGSGGGGSGGGGSGGGGSEVQLVESGGGVVRPGGSLRLSCSASGFTFDDYGMSWVRQAPGKGLEWVSGIHWNGGNSGYADSVKGRFTISRDNAKNSLYLQMNSLRAEDTALYYCARIPREDCSSASCYTDAIDFWGPGTMVTVSSAAAHHHHHH

- EC50 (M), NFAT-Luciferase Reporter Gene assay (LAG-3:MHCII) [3]: 5.4e-09 M
B2: VH1.1-8GS-VH1.1-His6 (VHH)
chain: EVQLVESGGGVVRPGGSLRLSCSASGFTFDDYGMSWVRQAPGKGLEWVSGIHWNGGNSGYADSVKGRFTISRDNAKNSLYLQMNSLRAEDTALYYCARIPREDCSSASCYTDAIDFWGPGTMVTVSSGGGGSGGGGSGGGGSGGGGSGGGGSGGGGSGGGGSGGGGSEVQLVESGGGVVRPGGSLRLSCSASGFTFDDYGMSWVRQAPGKGLEWVSGIHWNGGNSGYADSVKGRFTISRDNAKNSLYLQMNSLRAEDTALYYCARIPREDCSSASCYTDAIDFWGPGTMVTVSSAAAHHHHHH

- Kd [4]: 72.1 nM
- koff [4]: 0.00179 s⁻¹
- kon [4]: 24800 M⁻¹ s⁻¹
B3: VH 1.2 (VHH)
VHH: B5 VHH with F32Y, S55G, D56G, I57S, A59G, P119Q
notes: Human VH single domain antibody against LAG-3; It is VH 1.1 with S23A, P119Q, N57S and S58T; also called variant 2

- Kd [4]: 35.5 nM
- koff [4]: 0.000847 s⁻¹
- kon [4]: 23900 M⁻¹ s⁻¹
B4: variant 7 of VH 1.1 (VHH)
VHH: B5 VHH with S55G, D56G, I57N, A59G, S106V, S108A
notes: 4

- Kd [4]: 13 nM
- koff [4]: 0.00126 s⁻¹
- kon [4]: 96700 M⁻¹ s⁻¹
B6: variant 8 of VH 1.1 (VHH)
VHH: B5 VHH with D30N, F32Y, S55G, D56G, I57N, T58S, A59G, A107T
notes: 4

- Kd [4]: 35.5 nM
- koff [4]: 0.000912 s⁻¹
- kon [4]: 27000 M⁻¹ s⁻¹
B7: variant 1 of VH 1.1 (VHH)
VHH: B5 VHH with F32Y, S55G, D56G, I57N, T58S, A59G

- Kd [4]: 34.5 nM
- koff [4]: 0.000899 s⁻¹
- kon [4]: 26100 M⁻¹ s⁻¹
B9: variant 3 of VH 1.1 (VHH)
VHH: B5 VHH with F32Y, S55G, D56G, I57S, A59G
notes: 4

- EC50 (M), NFAT-Luciferase Reporter Gene assay (PD-1:PD-L1) [1]: 9.7e-09 M
B15: VH 2.77 (VHH)
VHH: B14 VHH with A61T

- EC50 (M), NFAT-Luciferase Reporter Gene assay (PD-1:PD-L1) [1]: 1.4e-08 M
- IC50 [7]: 2.8 nM
B16: VH 2.92 (VHH)
VHH: B14 VHH with S32E
notes: as for B14

- EC50 (M), NFAT-Luciferase Reporter Gene assay (LAG-3:MHCII) [3]: 3.3e-09 M
B17: VH1.1-12GS-VH1.1-His6 (VHH)
chain: EVQLVESGGGVVRPGGSLRLSCSASGFTFDDYGMSWVRQAPGKGLEWVSGIHWNGGNSGYADSVKGRFTISRDNAKNSLYLQMNSLRAEDTALYYCARIPREDCSSASCYTDAIDFWGPGTMVTVSSGGGGSGGGGSGGGGSGGGGSGGGGSGGGGSGGGGSGGGGSGGGGSGGGGSGGGGSGGGGSEVQLVESGGGVVRPGGSLRLSCSASGFTFDDYGMSWVRQAPGKGLEWVSGIHWNGGNSGYADSVKGRFTISRDNAKNSLYLQMNSLRAEDTALYYCARIPREDCSSASCYTDAIDFWGPGTMVTVSSAAAHHHHHH
